Results from article PMC10659539.
Values joined by “and” are separate entries in the source; they are usually repeats but may differ in a detail not shown here. Equal values may be shown once.

How the values were obtained:
[1] = molecular target: GLT-1, transfected in HEK PS DKO cells (UniProt P31596); assay: native gel or EMSA; Blue Native PAGE of HEK PS DKO cells transfected with GLT-1 and pcDNA3.1-GFP or wildtype PS1, lysed with digitonin 5%; blot with anti-GLT-1
[2] = molecular target: GLT-1, transfected in HEK PS DKO cells (UniProt P31596); assay: cross-linking; living HEK PS DKO cells transfected with GLT-1 and empty vector or wildtype PS1; 50 μM DSS in PBS−/− for 30 min at room temperature, quenched with 20 mM glycine; lysed in 1% NP-40 + 0.1% Triton-X; SDS-PAGE and blot with anti-GLT-1

With “GLT-1, transfected in HEK PS DKO cells (from UniProt P31596 1-573) (natural protein)” the GLT-1 multimers as percent of total GLT-1, with co-expressed PS1 [1] was 95.6%, the GLT-1 multimers as percent of total GLT-1, without PS1 [1] was 89.7% and the stoichiometry N [1] was 2 and 3. For the same substance, the stoichiometry N [2] was 2 and 3.
